Experimental data as given in patent publication US20230086210A1.

How the values were obtained:
[1] = biological target: human 4-1BB on Jurkat-hu4-1BB-NFκB-luc2 reporter cells (human) (UniProt Q07011); experiment: cell-based or functional assay; parameters: unit not given beside the values
[2] = biological target: human PD-L1 on MKN45-huPD-L1 cells (human) (UniProt Q9NZQ7); experiment: flow cytometry on MKN45-huPD-L1 cells, area under the binding curve; parameters: unit not given beside the values
Chain of human PD-L1 on MKN45-huPD-L1 cells (human) (Q9NZQ7 19-290 limits assumed): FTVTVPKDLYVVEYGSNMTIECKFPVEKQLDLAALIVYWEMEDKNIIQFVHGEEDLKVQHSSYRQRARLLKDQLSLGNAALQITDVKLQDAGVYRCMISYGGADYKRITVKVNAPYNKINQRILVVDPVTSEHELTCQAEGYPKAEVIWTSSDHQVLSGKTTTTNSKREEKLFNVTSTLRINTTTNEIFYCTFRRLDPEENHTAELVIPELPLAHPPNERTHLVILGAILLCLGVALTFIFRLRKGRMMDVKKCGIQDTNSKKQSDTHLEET

Chain of human 4-1BB on Jurkat-hu4-1BB-NFκB-luc2 reporter cells (human) (Q07011 24-255): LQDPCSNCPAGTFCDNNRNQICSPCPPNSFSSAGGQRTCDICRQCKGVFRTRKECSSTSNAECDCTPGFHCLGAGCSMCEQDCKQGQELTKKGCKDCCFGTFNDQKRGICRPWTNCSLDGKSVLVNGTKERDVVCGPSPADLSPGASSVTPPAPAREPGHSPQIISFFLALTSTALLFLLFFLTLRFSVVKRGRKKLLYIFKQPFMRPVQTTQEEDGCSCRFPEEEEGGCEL

Work on DP47 huIgG1 P329G LALA (antibody) yielded an AUC of NFκB-activation-induced Luciferase activity curve [1] of 112 and an AUC [2] of 248.
